Substrate in the series: CCCCC/C=C\C/C=C\CCCCCCCC(=O)OCC(O)COC(=O)CCCCCCC/C=C\C/C=C\CCCCC
Briefly: differential pulse voltammetry of released linoleic acid, CoPC/MWCNT carbon paste electrode. The class given is biochemical, Sus scrofa. Particulars: sodium borate 0.1 M pH 9, room temperature, 25 min, Lineweaver-Burk plot, substrate in paraffin oil.

B1: porcine pancreas lipase (PP-L) (Sus scrofa) (protein)
chain: SEVCFPRLGCFSDDAPWAGIVQRPLKILPWSPKDVDTRFLLYTNQNQNNYQELVADPSTITNSNFRMDRKTRFIIHGFIDKGEEDWLSNICKNLFKVESVNCICVDWKGGSRTGYTQASQNIRIVGAEVAYFVEVLKSSLGYSPSNVHVIGHSLGSHAAGEAGRRTNGTIERITGLDPAEPCFQGTPELVRLDPSDAKFVDVIHTDAAPIIPNLGFGMSQTVGHLDFFPNGGKQMPGCQKNILSQIVDIDGIWEGTRDFVACNHLRSYKYYADSILNPDGFAGFPCDSYNVFTANKCFPCPSEGCPQMGHYADRFPGKTNGVSQVFYLNTGDASNFARWRYKVSVTLSGKKVTGHILVSLFGNEGNSRQYEIYKGTLQPDNTHSDEFDSDVEVGDLQKVKFIWYNNNVINPTLPRVGASKITVERNDGKVYDFCSQETVREEVLLTLNPC
On to B1, for which the Michaelis constant (Km) was 290 µM.

What is called Km is the substrate concentration at which the rate is half of its maximum.

The record behind these values is paper PMC9234029, “Voltammetric lipase activity assay based on dilinolein and a modified carbon paste electrode” (Analytical and Bioanalytical Chemistry, 2022).
